In PMC2422856:

Biological target: CapAB(K55M), inactive P-loop mutant of the CapAB chimeric protein, unphosphorylated (Staphylococcus aureus)
Experiment: crystal structure; CapAB(K55M) at 8.5 mg/ml with 10 mM MgCl2, 20% (v/v) PEG 1000, 200 mM glycine, 0.1 M Na-Hepes pH 7.5, 18 °C; 2.6 Å

For “CapAB(K55M), inactive P-loop mutant of the CapAB chimeric protein, unphosphorylated”, the stoichiometry N was 8.
